{
  "source": "patent US10253089B2",
  "about": "“Matrix metalloproteinase cleavable protein polymers for cancer gene therapy” (The University of Utah Research Foundation, priority 2012, dated 2019)",
  "key": {"MMP-9": {"target": "MMP-9 (Homo sapiens, UniProt P14780)", "sequence (P14780 94-707)": "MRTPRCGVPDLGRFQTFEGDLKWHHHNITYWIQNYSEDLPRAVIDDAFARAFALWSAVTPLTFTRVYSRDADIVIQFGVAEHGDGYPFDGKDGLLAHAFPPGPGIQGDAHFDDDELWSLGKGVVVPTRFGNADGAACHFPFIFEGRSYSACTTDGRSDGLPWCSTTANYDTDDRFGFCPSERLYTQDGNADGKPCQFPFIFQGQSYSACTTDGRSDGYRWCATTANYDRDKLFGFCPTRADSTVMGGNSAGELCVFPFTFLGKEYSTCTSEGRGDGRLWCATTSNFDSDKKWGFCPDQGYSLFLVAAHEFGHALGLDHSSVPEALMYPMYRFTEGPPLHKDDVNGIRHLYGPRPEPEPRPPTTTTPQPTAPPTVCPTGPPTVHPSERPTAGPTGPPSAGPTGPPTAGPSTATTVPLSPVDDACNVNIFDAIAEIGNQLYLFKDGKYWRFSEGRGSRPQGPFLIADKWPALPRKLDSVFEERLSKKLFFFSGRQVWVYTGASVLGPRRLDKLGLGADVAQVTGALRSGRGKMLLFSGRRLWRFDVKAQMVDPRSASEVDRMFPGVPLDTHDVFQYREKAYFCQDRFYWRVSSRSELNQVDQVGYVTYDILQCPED", "assay": "Hydrogel protein loss in the presence of MMP-9", "type": "biochemical", "conditions": "10 wt % hydrogel, MMP-9 10 nM, two weeks", "experimental": "The properties of hydrogels formed from SELPs are strongly dependent on the shear applied to liquid solutions of polymer prior to gelation. SELPs solubilized in phosphate buffered saline were loaded into a 1 ml luer-lock syringe connected at the hub to another 1 ml luer-lock syringe via two 27G needles, joined by a section of 0.0155″ HPLC tubing. The SELP solution was passed through this device at maximum hand pressure for five full bidirectional cycles, at which point it was used for studies.\nHydrogels were characterized for their sensitivity to MMP degradation in the context of protein loss from the gel, changes in mechanical properties, and release of model 100 nm fluorescent nanoparticles. […] Syringes were sealed with Parafilm and allowed to gel upright overnight at 37° C. […]\nProtein loss was quantified using a Modified Lowry Assay Kit, and using known SELP solutions for the standard curve instead of the supplied bovine serum albumin, as SELP contains few Lowry-reactive amino acids. The mechanical properties of SELPs were evaluated in cyclic compression at 1 Hz and 1% strain, with ˜10 grams of preloading applied for 10 minutes to eliminate stress relaxation. Stress was measured using a 2 lb load cell. Release was quantified by measuring the fluorescence of release samples with an excitation/emission of 260/515. […]"}, "[1]": {"assay": "One week acute toxicity study (weight, CBC)", "type": "in vivo, CD-1 immunocompetent mice", "experimental": "Mice were anesthetized and maintained under anesthesia with 3% isofluorane in oxygen. After shaving and cleaning the injection site with 60% isopropanol, mice were subcutaneously injected in the right flank with 50 μl of solution using a 250 μl Hamilton syringe with a 26G needle. […] The injection site was gently clamped for 10 seconds to prevent leakage, after which mice were returned to their cages. For consistency, the day of viral injection was defined as day 0.\nFor treatment groups, a suspension of 1 mg GCV (Sigma Aldrich, St. Louis, Mo.) per ml of 0.9% physiological saline was prepared and sterilized through a 0.22 μm filter. Each day, animal weights were recorded, injection sites cleaned with 60% isopropanol, and mice injected i.p. with 1 mg/ml GCV suspension through a 26G needle sufficient for a total dose of 25 mg/kg body weight. Average dosing volume for these studies was approximately 0.6 ml. Mice were injected daily for the first four weeks of the 12 week recovery study, and for the entirety of the 1, 2, and 4 week studies.\nUpon completion of each study, mice were individually euthanized using 70% CO2 in oxygen, with euthanasia confirmed by lack of breathing for 10 seconds. […] Injection sites were dissected for visual observation of local inflammation. Complete blood counts (CBCs) were performed within 2 hours of blood sample collection using a CBC-DIFF (Heska, Loveland, Colo.) blood count analyzer. Following CBC, samples were centrifuged at 10,000 rpm for 2.5 minutes and rapidly frozen at −80° C. for future analysis.\nSafety studies were conducted in immunocompetent mice. In order to examine the ability of SELP to reduce the acute toxicity of the HSV-Tk/GCV system, 4-6 week old female CD-1 immunocompetent mice were injected subcutaneously with the conditions listed in Table 5. Weight was monitored daily for one week and daily injections of 25 mg/kg, intraperitoneal GCV were given to some groups as indicated in Table 5.\nAt the conclusion of the one week study, mice were sacrificed, and blood and organs were collected for analysis. […] These assessments were performed using a complete blood count."}, "[2]": {"assay": "Small angle neutron scattering (SANS) of SELP hydrogels", "type": "physicochemical", "conditions": "12 wt %", "from_the_text": "To gain further insight into the hydrogel pore structure, network properties were examined as a function of polymer sequence by small angle neutron scattering (SANS) techniques (FIG. 9). SANS allows the examination of microstructures in the range 1-100 nm through the analysis of elastic neutron scattering. SANS analysis was used to examine the correlation between the observed macroscopic properties of SELPs (12% wt), such as equilibrium swelling and mechanical modulus, with the underlying network structure. […] SELP hydrogels conformed closely with a modified gel model of the general form I(Q)=AQ^b+(BQ^2ε^2)^2+C, which uses a power-law fit for the high q scattering combined with the Debye-Bueche model at low to intermediate Q (above Q=0.02 Å^−1). The combined Debye-Bueche/power law model provided a nearly complete fit over the full q-range of collected data. […] The calculated correlation length (Table 3) depicts a trend in the observation that are in the order SELP-415K>SELP-815K>SELP-47K. […] The silk blocks of SELP-415K are separated by elastin blocks twice the length as −47K, and as these cross-linking blocks move further apart, the elastin-like nature of the SELP becomes more pronounced and the storage modulus decreases. SELP-815K presents an interesting case where the silk blocks are doubled in length over SELP-47K while also having a long elastin block as in SELP415K."}},
  "data": [
    {"molecule": "SELP815K: silk-elastin-like protein polymer, longer silk units, fifteen elastin units, lysine elastin unit; monomer repeated 6 times (SEQ ID NO. 21) (protein, monomer repeated 6 times; Hybrid of Homo sapein and Bombyx mori) MDPVVLQRRDWENPGVTQLNRLAAHPPFASDPMGAGSGAGAGSGAGAGSGVGVPGVGVPGVGVPGVGVPGKGVPGVGVPGVGVPGVGVPGVGVPGVGVPGVGVPGVGVPGVGVPGVGVPGVGVPGVGVPGAGAGSGAGAGSGAGAGSGAGAGSGAGAGSGAGAGAGSGAGAGSGAGAGSGVGVPGVGVPGVGVPGVGVPGKGVPGVGVPGVGVPGVGVPGVGVPGVGVPGVGVPGVGVPGVGVPGVGVPGVGVPGVGVPGAGAGSGAGAGSGAGAGSGAGAGSGAGAGSGAGAGAGSGAGAGSGAGAGSGVGVPGVGVPGVGVPGVGVPGKGVPGVGVPGVGVPGVGVPGVGVPGVGVPGVGVPGVGVPGVGVPGVGVPGVGVPGVGVPGAGAGSGAGAGSGAGAGSGAGAGSGAGAGSGAGAGAGSGAGAGSGAGAGSGVGVPGVGVPGVGVPGVGVPGKGVPGVGVPGVGVPGVGVPGVGVPGVGVPGVGVPGVGVPGVGVPGVGVPGVGVPGVGVPGAGAGSGAGAGSGAGAGSGAGAGSGAGAGSGAGAGAGSGAGAGSGAGAGSGVGVPGVGVPGVGVPGVGVPGKGVPGVGVPGVGVPGVGVPGVGVPGVGVPGVGVPGVGVPGVGVPGVGVPGVGVPGVGVPGAGAGSGAGAGSGAGAGSGAGAGSGAGAGSGAGAGAGSGAGAGSGAGAGSGVGVPGVGVPGVGVPGVGVPGKGVPGVGVPGVGVPGVGVPGVGVPGVGVPGVGVPGVGVPGVGVPGVGVPGVGVPGVGVPGAGAGSGAGAGSGAGAGSGAGAGSGAGAGSGAGAMDPGRYQDLRSHHHHHH", "values": [
      {"measurement": "higher protein loss compared to control", "setting": "MMP-9", "result": "statistically insignificant"},
      {"measurement": "GRA", "setting": "[1]", "result": "1.125 ± 0.39"},
      {"measurement": "LYM", "setting": "[1]", "result": "4.475 ± 0.87"},
      {"measurement": "MON", "setting": "[1]", "result": "0.7 ± 0.27"},
      {"measurement": "WBC", "setting": "[1]", "result": "6.3 ± 0.79"},
      {"measurement": "Debye-Bueche mid-Q slope", "setting": "[2]", "result": "~−3"},
      {"measurement": "Power-law low Q slope", "setting": "[2]", "result": 3.26}
    ]}
  ]
}
